Results as given in patent publication US11278600B2, “Human alpha-galactosidase variants” (Codexis, Inc., priority 2014, dated 2022).
Residue numbers refer to the chain shown, from its start.

B1: 410 (protein)
chain: LDNGLARTPTMGWLHWERFMCNLDCQEEPDSCISEKLFMEMAERMVSEGWKDAGYEYLCIDDCWMAPQRDSEGRLQADPQRFPHGIRQLANYVHSKGLKLGIYADVGNKTCAGFPGSFGYYDIDAQTFADWGVDLLKFDGCYCDSLENLADGYKHMSLALNHTGRSIVYSCEWPLYMWPFQKPNYTEIRQYCNHWRNFADIDDSWKSIKSILDWTSRNQERIVDVAGPGGWNDPDMLVIGNFGLSWDQQVTQMALWAIMAAPLFMSNDLRHISPQAKALLQDKDVIAINQDPLGKQGYQLRKGDNFEVWERPLSGDAWAVAIINRQEIGGPRSYTIPVASLGKGVACNPACFITQLLPVKRQLGFYNWTSRLKSHINPTGTVLLQLENTMQMSLKDLL
modifications: Synthetic Polypeptide sequence of Variant No. 410 of mature Human GLA
B2: 411 (protein)
chain: B1 chain with H162R, S166A
modifications: Synthetic Polypeptide sequence of Variant No. 411 of mature Human GLA
B3: 412 (protein)
chain: B1 chain with H162R, S166H
modifications: Synthetic Polypeptide sequence of Variant No. 412 of mature Human GLA
B4: 414 (protein)
chain: B1 chain with L158Q, H162R
modifications: Synthetic Polypeptide sequence of Variant No. 414 of mature Human GLA
B5: 415 (protein)
chain: B1 chain with H162R, S166D
modifications: Synthetic Polypeptide sequence of Variant No. 415 of mature Human GLA
B6: 416 (protein)
chain: B1 chain with H162G
modifications: Synthetic Polypeptide sequence of Variant No. 416 of mature Human GLA
B7: 417 (protein)
chain: B1 chain with H162S
modifications: Synthetic Polypeptide sequence of Variant No. 417 of mature Human GLA
B8: 363 (protein)
chain: B1 chain with S47D, H162R
modifications: Synthetic Polypeptide sequence of Variant No. 363 of mature Human GLA
B9: 418 (protein)
chain: B1 chain with N161E, H162R
modifications: Synthetic Polypeptide sequence of Variant No. 418 of mature Human GLA
B10: 419 (protein)
chain: B1 chain with H162R, S166E
modifications: Synthetic Polypeptide sequence of Variant No. 419 of mature Human GLA
B11: 420 (protein)
chain: B1 chain with H162R, S166T
modifications: Synthetic Polypeptide sequence of Variant No. 420 of mature Human GLA
B12: 421 (protein)
chain: B1 chain with H162Q
modifications: Synthetic Polypeptide sequence of Variant No. 421 of mature Human GLA
B13: 422 (protein)
chain: B1 chain with L158G, H162R
modifications: Synthetic Polypeptide sequence of Variant No. 422 of mature Human GLA
B14: 423 (protein)
chain: B1 chain with H162A
modifications: Synthetic Polypeptide sequence of Variant No. 423 of mature Human GLA
B15: 424 (protein)
chain: B1 chain with H162R, L255E
modifications: Synthetic Polypeptide sequence of Variant No. 424 of mature Human GLA
B16: 425 (protein)
chain: B1 chain with H162R, H271E
modifications: Synthetic Polypeptide sequence of Variant No. 425 of mature Human GLA

Test: HTP-analysis of supernatants pretreated with base (MUGal hydrolysis)
Format: biochemical
Conditions: activity of the variant/activity of Rd4BB (SEQ ID NO: 15); challenge at pH 9.65
In short: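 Fluorescence of released 4-MU (Ex 355 nm, Em 448 nm) after carbonate quench reports MUGal hydrolysis by GLA variants secreted from INVSc1 yeast. Before the acidic (pH 4.3-4.8) 30-180 min reaction at 37° C, supernatants had been pre-incubated at pH 7.0-9.7 for 1-18 h at 37° C.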

Molecule	Relative Activity of GLA Variants After Challenge at pH 9.65
B1	− (<0.5 relative activity over Rd4BB (SEQ ID NO: 15))
B2	+ (0.5 to 1.5 relative activity over Rd4BB (SEQ ID NO: 15))
B3	+ (0.5 to 1.5 relative activity over Rd4BB (SEQ ID NO: 15))
B4	+ (0.5 to 1.5 relative activity over Rd4BB (SEQ ID NO: 15))
B5	+ (0.5 to 1.5 relative activity over Rd4BB (SEQ ID NO: 15))
B6	− (<0.5 relative activity over Rd4BB (SEQ ID NO: 15))
B7	− (<0.5 relative activity over Rd4BB (SEQ ID NO: 15))
B8	+ (0.5 to 1.5 relative activity over Rd4BB (SEQ ID NO: 15))
B9	− (<0.5 relative activity over Rd4BB (SEQ ID NO: 15))
B10	+ (0.5 to 1.5 relative activity over Rd4BB (SEQ ID NO: 15))
B11	− (<0.5 relative activity over Rd4BB (SEQ ID NO: 15))
B12	− (<0.5 relative activity over Rd4BB (SEQ ID NO: 15))
B13	− (<0.5 relative activity over Rd4BB (SEQ ID NO: 15))
B14	+ (0.5 to 1.5 relative activity over Rd4BB (SEQ ID NO: 15))
B15	− (<0.5 relative activity over Rd4BB (SEQ ID NO: 15))
B16	+ (0.5 to 1.5 relative activity over Rd4BB (SEQ ID NO: 15))

Test: HTP-analysis of yeast culture supernatants, no challenge (MUGal hydrolysis)
Format: biochemical
Conditions: activity of the variant/activity of Rd4BB (SEQ ID NO: 15)
In short: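 GLA variants were expressed in INVSc1 yeast grown in SD-Ura broth with glucose at 30° C., and culture supernatants were collected after 66-84 h. Supernatant was mixed with McIlvaine buffer pH 4.8 and MUGal (2 mM stock) in 50 mM citrate, 200 mM KCl, pH 4.6, incubated at 37° C. for 30-180 minutes, then quenched with sodium carbonate.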

Molecule	Relative Activity of GLA Variants After No Challenge (NC)
B1	+ (0.5 to 1.5 relative activity over Rd4BB (SEQ ID NO: 15))
B2	+ (0.5 to 1.5 relative activity over Rd4BB (SEQ ID NO: 15))
B3	+ (0.5 to 1.5 relative activity over Rd4BB (SEQ ID NO: 15))
B4	+ (0.5 to 1.5 relative activity over Rd4BB (SEQ ID NO: 15))
B5	+ (0.5 to 1.5 relative activity over Rd4BB (SEQ ID NO: 15))
B6	+ (0.5 to 1.5 relative activity over Rd4BB (SEQ ID NO: 15))
B7	+ (0.5 to 1.5 relative activity over Rd4BB (SEQ ID NO: 15))
B8	+ (0.5 to 1.5 relative activity over Rd4BB (SEQ ID NO: 15))
B9	+ (0.5 to 1.5 relative activity over Rd4BB (SEQ ID NO: 15))
B10	+ (0.5 to 1.5 relative activity over Rd4BB (SEQ ID NO: 15))
B11	+ (0.5 to 1.5 relative activity over Rd4BB (SEQ ID NO: 15))
B12	+ (0.5 to 1.5 relative activity over Rd4BB (SEQ ID NO: 15))
B13	+ (0.5 to 1.5 relative activity over Rd4BB (SEQ ID NO: 15))
B14	+ (0.5 to 1.5 relative activity over Rd4BB (SEQ ID NO: 15))
B15	+ (0.5 to 1.5 relative activity over Rd4BB (SEQ ID NO: 15))
B16	+ (0.5 to 1.5 relative activity over Rd4BB (SEQ ID NO: 15))

Test: HTP-analysis of supernatants pretreated with acid (MUGal hydrolysis)
Format: biochemical
Conditions: activity of the variant/activity of Rd4BB (SEQ ID NO: 15); challenge at pH 3.7
In short: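 Fluorescence of MUGal hydrolysis (Ex. 355 nm, Em. 448 nm) is read after sodium carbonate quench. The enzyme source is INVSc1 yeast culture supernatant, first exposed to pH 3.3-4.3 McIlvaine buffer at 37° C. for 1-3 h, then reacted at pH 4.8 for 30-180 minutes.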

Molecule	Relative Activity of GLA Variants After Challenge at pH 3.7
B1	+ (0.5 to 1.5 relative activity over Rd4BB (SEQ ID NO: 15))
B2	+ (0.5 to 1.5 relative activity over Rd4BB (SEQ ID NO: 15))
B3	++ (>1.5 to 2.5 relative activity over Rd4BB (SEQ ID NO: 15))
B4	+ (0.5 to 1.5 relative activity over Rd4BB (SEQ ID NO: 15))
B5	+ (0.5 to 1.5 relative activity over Rd4BB (SEQ ID NO: 15))
B6	+ (0.5 to 1.5 relative activity over Rd4BB (SEQ ID NO: 15))
B7	+ (0.5 to 1.5 relative activity over Rd4BB (SEQ ID NO: 15))
B8	+ (0.5 to 1.5 relative activity over Rd4BB (SEQ ID NO: 15))
B9	+ (0.5 to 1.5 relative activity over Rd4BB (SEQ ID NO: 15))
B10	+ (0.5 to 1.5 relative activity over Rd4BB (SEQ ID NO: 15))
B11	++ (>1.5 to 2.5 relative activity over Rd4BB (SEQ ID NO: 15))
B12	+ (0.5 to 1.5 relative activity over Rd4BB (SEQ ID NO: 15))
B13	+ (0.5 to 1.5 relative activity over Rd4BB (SEQ ID NO: 15))
B14	+ (0.5 to 1.5 relative activity over Rd4BB (SEQ ID NO: 15))
B15	+ (0.5 to 1.5 relative activity over Rd4BB (SEQ ID NO: 15))
B16	− (<0.5 relative activity over Rd4BB (SEQ ID NO: 15))
